Here are results for two molecules from PMC8562373 (Biochemistry (Moscow) Supplement. Series B, Biomedical …, 2021).

For this test, the target named is SARS-CoV-2 protein S receptor-binding domain (RBD), original Wuhan strain (SARS-CoV-2, UniProt P0DTC2 331-524). Briefly: MST.

Bounds are passed on as bounds.

As to IEEQAKTFLDKFNHQAEDLFYK [h1-Mpa peptide (h1 with Lys31 modified with 3-mercaptopropionic acid)], the Kd was greater than 1000 µM. Then DKWSAFLKECSTIAQIYPLQEI [h2-Cys peptide (h2 with Gln76 replaced with Cys76)], with greater than 1000 µM.
